How the values were obtained:
Aβ42 fibrils [1] = assay: NMR titration; solution 1H-15N HSQC of 74 uM 15N-labelled BRICHOS before and after adding sonicated unlabelled Aβ42 fibrils at 1:1 (related to monomeric Aβ42); 20 mM sodium phosphate, 0.2 mM EDTA, pH 7.4, 25 °C; loss of signal intensity taken as the bound population
Aβ42 fibrils [2] = assay: SPR; sonicated Aβ42 fibrils immobilised by amine coupling on a C1 chip (BIAcore 3000); R221E Bri2 BRICHOS injected at 0.195-50 uM in HBS-E (10 mM HEPES, 150 mM NaCl, 0.2 mM EDTA, pH 7.5), 30 uL/min; two-phase association and two-phase dissociation model, global fit; apparent constants
Aβ42 fibrils [3] = assay: co-sedimentation; sample of co-incubated BRICHOS-Aβ42 fibrils centrifuged; BRICHOS in the supernatant measured by SDS-PAGE

percent of HSQC signal intensity left after adding fibrils at 1:1 (Aβ42 fibrils [1]): 90%
percent of total BRICHOS bound (Aβ42 fibrils [1]): 5 to 10%
relative signal attenuation (population of bound BRICHOS) (Aβ42 fibrils [1]): 10%
KD app of the strong phase (two-phase model) (Aβ42 fibrils [2]): 12.9 nM
percent of BRICHOS in the soluble fraction (Aβ42 fibrils [3]): 95%
percent of total BRICHOS bound (Aβ42 fibrils [3]): 5 to 10%
Substance: recombinant human Bri2 BRICHOS R221E monomer (domain or fragment)

Source: article PMC10834949
